Assay results taken from IntAct's records for PubMed 23893131.

B1: Glia maturation factor gamma (Mus musculus), Q9ERL7 (parent)
chain: MSDSLVVCEVDPELKETLRKFRFRKETNNAAIIMKVDKDRQMVVLEDELQNISPEELKLELPERQPRFVVYSYKYVHDDGRVSYPLCFIFSSPVGCKPEQQMMYAGSKNRLVQTAELTKVFEIRTTDDLTETWLKEKLAFFR

Variants of: B1
Conditions: with arpc2_bovin ARPC2, Q3MHR7

Effect of a mutation on the interaction, decreasing interaction strength:
R124E
M102A
D128K
